Consider 8 molecules from article doi:10.1101/2019.12.18.881771 (bioRxiv, 2019).

The target of data set [1] is GIT1 FAT domain (aa 640-770) (mouse) (UniProt Q68FF6). Description: ITC.
The target of data set [2] is FITC-labelled β-Pix GBD peptide, wild type (mouse). The data set can be described thus: fluorescence polarisation.
The data set “SEC-MALS” deals with the molecule itself. The data set can be described thus: SEC-MALS.
For data set [3], the target named is T1, GIT1 GAP-ANK-SHD (GAS) tandem (mouse, UniProt Q68FF6 1-371).
T1 sequence (looked up): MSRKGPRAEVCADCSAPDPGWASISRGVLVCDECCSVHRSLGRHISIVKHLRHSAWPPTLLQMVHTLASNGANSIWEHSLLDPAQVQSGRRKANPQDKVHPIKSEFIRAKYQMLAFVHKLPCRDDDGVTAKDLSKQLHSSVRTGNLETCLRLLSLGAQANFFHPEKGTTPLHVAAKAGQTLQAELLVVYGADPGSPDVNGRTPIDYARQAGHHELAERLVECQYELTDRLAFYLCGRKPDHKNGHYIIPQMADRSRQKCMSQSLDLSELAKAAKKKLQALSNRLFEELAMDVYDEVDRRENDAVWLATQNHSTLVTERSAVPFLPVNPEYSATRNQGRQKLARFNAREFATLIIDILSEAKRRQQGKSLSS
Description: fluorescence polarisation.

Another data set addresses T2, GIT1 SHD domain (mouse, UniProt Q68FF6 260-371).
T2 sequence (looked up): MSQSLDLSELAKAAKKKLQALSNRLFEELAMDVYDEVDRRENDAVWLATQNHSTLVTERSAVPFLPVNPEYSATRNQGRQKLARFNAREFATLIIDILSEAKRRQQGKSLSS
Description: ITC.

Data set [4] has as its target T1, GIT1 GAP-ANK-SHD (GAS) tandem. The data set can be described thus: ITC.

No end group written: not given here. *: point of attachment. FITC = O=C1OC2(c3ccc(O)cc3Oc3cc(O)ccc32)c2ccc(NC(=S)*)cc21

Sequence of GIT1 FAT domain (aa 640-770) (mouse) (Q68FF6 640-770): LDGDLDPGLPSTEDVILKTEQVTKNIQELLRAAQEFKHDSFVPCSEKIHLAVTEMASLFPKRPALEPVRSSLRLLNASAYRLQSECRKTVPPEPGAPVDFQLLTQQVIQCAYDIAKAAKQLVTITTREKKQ

“Paxillin LD4 motif (aa 261-282) (peptide)”: the Kd in data set [1] came out at 3 µM.
Consider Paxillin LD2 motif (peptide), for which, in data set [1], the Kd came to 164 µM.
Molecule “GIT2 GAP-ANK-SHD (GAS) tandem, wild type, purified (domain or fragment)” registered a Kd in data set [2] of 27 nM.

B1: β-Pix coiled-coil domain, wild type (domain or fragment, mouse, UniProt Q9ES28-4 691-751, looked up)
chain: EEKSLVDTVYALKDEVQELRQDNKKMKKSLEEEQRARKDLEKLVRKVLKNMNDPAWDETNL
On to B1, for which the “stoichiometry N” value in the data set “SEC-MALS” came out at 3.
{FITC}-ALEEDAQILKVIEADCTSAKT (peptide, UniProt Q9ES28-4 633-653, looked up) [FITC-labelled β-Pix GBD Y542D peptide] returned a Kd in data set [3] of around 76.4 µM.

B2: GIT1 coiled-coil domain, wild type (domain or fragment, mouse, UniProt Q68FF6 426-483, looked up)
chain: SDGAVTLQEYLELKKALATSEAKVQQLMKVNSSLSDELRRLQREIHKLQAENLQLRQP
As to B2, the “stoichiometry N” value in the data set “SEC-MALS” was determined as 2.

B3: β-Pix 494-555 (domain or fragment, mouse, UniProt Q9ES28-4 599-660, looked up)
chain: DLSKSPKTMKKLLPKRKPERKPSDEEFAVRKSTAALEEDAQILKVIEAYCTSAKTRQTLNSS
For the molecule B3, the Kd in the data set with GIT1 SHD domain is around 150 nM.
In the case of ALEEDAQILKVIEAYCTSAKT [β-Pix GBD peptide (aa 528-548)], the Kd in data set [4] was around 15 nM; with GIT1 SHD domain, around 180 nM.
